The values below come from US6566083B1, “Method of detecting biologically active substances” (Novo Nordisk A/S, priority 1995, dated 2003).

Assay [1] deals with T1, catalytic subunit of the cAMP dependent protein kinase (Bos taurus, UniProt P00517).
T1 construct: purchased Promega
The assay can be described thus: In vitro GFP phosphorylation assay. It is filed as biochemical. To be noted: 0.5 μg GFP, 10 casein units kinase, 0.2 mM ATP, 5 minutes at 37° C., excitation 395 nm (FIG. 3). How it is done:
For in vitro phosphorylation of GFP, 0.5 μg wild-type GFP (purified as described above) in 40 mM Tris, pH 7.4, 20 mM MgOAc and 0.2 mM ATP (all from Sigma, St. Louis, Mo., USA) was incubated for 1-60 minutes at 37° C. with 0-20 casein units of the catalytic subunit of the cAMP dependent protein kinase (Promega, Madison, Wis. USA) and 0-200 μM cAMP dependent protein kinase inhibitor. Emission (excitation wavelength 395 nm or 470 nm) and excitation (emission wavelength 508 nm) spectra were acquired for all samples using the LS50B Luminescence Spectrometer and the FL data Manager software package (Perkin Elmer). The spectra were subsequently compared by using the Graph Builder software package (Perkin Elmer).
The control (w/o PKA) was incubated 5 minutes at 37° C. without the catalytic subunit of the cAMP dependent protein kinase. The excitation wavelength was 395 nm. RFI in the figure means relative fluorescence intensity.

For assay [2], the target named is wild-type green fluorescent protein (GFP) derived from the jellyfish Aequorea victoria (Aequorea victoria) [GFP: P42212]. The assay can be described thus: cell-based or functional assay.

In the case of “wild-type GFP: wild-type green fluorescent protein derived from the jellyfish Aequorea victoria, SEQ ID NO: 32, purified from E. coli”, in assay [1], the “increase of fluorescence intensity when incubated with the catalytic subunit of the cAMP dependent protein kinase” value is given as “approximately two-fold”.
In turn, “catalytic subunit of the cAMP dependent protein kinase (Promega) (enzyme)” came in with a fluorescence intensity of wild-type GFP (emission spectra, excitation 395 nm) after in vitro phosphorylation in assay [2] of 2 fold.
